Assay results as given in patent US20240182562A1.

B1: 7E3 (hybridoma clone, murine CLDN18.2 antigen-binding protein) (antibody, V domains shown)
VH: EVQLQQSGPELVKPGASVKMSCKASGYTFTNYIIHWVKQKPGQGLEWIGYINPYTDGPKYNEKFKGRATLTSDKSSSTAYMEFSSLTSEDSAVYYCARLNRGNAMDYWGQGTSVTVSS
VL: DIVMTQSPSSLTVTVREKVTLSCKSSQSLLNSGNQKNYLTWYQQKPGQPPKLLIYWASTRESGVPDRFTGSGSGTDFTLTISSVQAEDLAVYYCQNVYIYPFTFGAGTKLELKR
B2: 14E12 (hybridoma clone, murine CLDN18.2 antigen-binding protein) (antibody, V domains shown)
VH: EVQLQESGPELVKPGASVKMSCKASGYTFTNYIIHWVKQKPGQGLEWIGYINPYTDGPKYNEKFKGRATLTSDKSSSTAYMEFSSLTSEDSAVYYCARLNRGNAMDYWGQGTSVTVSS
VL: DIVMTQSPSSLSVSAGEKVTMSCKSSQSLLNNGNQKNYLAWYQQKPGQPPKLLIYGASTRESGVPDRFTGSGSGTDFALTISSVQAEDLAVYYCQNDLYYPFTFGSGTKLDIKR
B3: 17B10 (hybridoma clone, murine CLDN18.2 antigen-binding protein) (antibody, V domains shown)
VH: EVQLQESGPELVKPGASVKMSCKASGYTFTNYIIHWVKQKPGQGLEWIGYINPYTDGPKYNEKFKGRATLTSDKSSSTAYMEFSSLTSEDSAVYYCARLNRGNAMDYWGQGTSVTVSS
VL: DIVMTQSPSSLTVTAGEKVTMNCKSSQSLLNSGNQKNYLTWYQQKPGQPPKLLIYWASTRESGVPDRFTGSGSGTDFTLTISSVQAEDLAVYYCQNDYSFPFTFGSGTKLEIKR
B4: 5E6 (hybridoma clone, murine CLDN18.2 antigen-binding protein) (antibody, V domains shown)
VH: EVQLQQSGPELVKPGASVKMSCKASGYTFTNYVMNWVKQKPGQGLEWIGYINPYNDGTKYNERFKGKATLTSDKSSSTAFMEVSSLTSEDSAVYYCARLYRGNAMDYWGQGTSVTVSS
VL: DIVMTQSPSSLTVTVREKVTLSCKSSQSLLNSGNQKNYLTWYQQKPGQPPKLLIYWASTRESGVPDRFTGSGSGTDFTLTISSVQAEDLAVYYCQNVYIYPFTFGAGTKLELKR

What was measured:
Human CLDN18.1 (human) [1] = biological target: Human CLDN18.1 (human) (UniProt P56856); assay: FACS, hybridoma culture supernatant on 293T-human CLDN18.1 cells (permeable membrane treatment)
Human CLDN18.1 (human) [2] = biological target: Human CLDN18.1 (human) (UniProt P56856); assay: FACS, hybridoma culture supernatant on CHO-human CLDN18.1 cells (permeable membrane treatment)

Sequence of Human CLDN18.1 (human) (P56856 whole entry): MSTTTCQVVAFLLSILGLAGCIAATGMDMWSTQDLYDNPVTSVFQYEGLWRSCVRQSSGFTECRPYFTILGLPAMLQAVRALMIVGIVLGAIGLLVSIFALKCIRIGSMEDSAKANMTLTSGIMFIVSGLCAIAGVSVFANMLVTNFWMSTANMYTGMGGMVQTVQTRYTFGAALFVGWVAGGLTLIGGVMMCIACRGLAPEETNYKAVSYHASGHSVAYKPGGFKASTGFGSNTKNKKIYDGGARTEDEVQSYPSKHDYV

Binder	Average fluorescence intensity (Human CLDN18.1 (human) [1])	Average fluorescence intensity (Human CLDN18.1 (human) [2])
B1	3040	3380
B2	2580	1860
B3	2400	1680
B4	4330	5370
